Experiments:
[1] = biological target: HLA-A*02:01; test: IEDB peptide-MHC binding, cellular MHC/competitive/fluorescence; ≥ and ≤ were set here for values at or beyond the usual limits of such assays
[2] = biological target: HLA-A*02:02; test: IEDB peptide-MHC binding, purified MHC/competitive/radioactivity; ≥ and ≤ were set here for values at or beyond the usual limits of such assays
[3] = biological target: HLA-A*02:03; test: as above
[4] = biological target: HLA-A*68:02; test: as above
[5] = biological target: HLA-A*02:06; test: as above
[6] = biological target: HLA-A*68:02; test: IEDB peptide-MHC binding, cellular MHC/competitive/fluorescence; ≥ and ≤ were set here for values at or beyond the usual limits of such assays
[7] = biological target: HLA-A*02:01; test: IEDB peptide-MHC binding, purified MHC/competitive/radioactivity; ≥ and ≤ were set here for values at or beyond the usual limits of such assays; details: source organism: Influenza A virus
[8] = source organism: Influenza A virus
[9] = source organism: Vaccinia virus WR
[10] = source organism: Mammarenavirus choriomeningitidis
[11] = source organism: Hepacivirus hominis

In the case of ATAGLTHMMI, the IC50 [1, 8] is reported as 12100 nM, the IC50 [2, 8] is reported as 636 nM and the IC50 [3, 8] is reported as 1060 nM. It also gave an IC50 [4, 8] of 138 nM and an IC50 [5, 8] of 2200 nM.

In the case of LVAEHRFENM, the IC50 [1, 9] is reported as no less than 70000 nM, the IC50 [2, 9] is reported as 2050 nM and the IC50 [3, 9] is reported as 462 nM. It also gave an IC50 [4, 9] of 1400 nM and an IC50 [5, 9] of 723 nM.

FVNFNSVKNL gave an IC50 [1, 9] of 8720 nM, an IC50 [2, 9] of 2020 nM and an IC50 [3, 9] of 318 nM. It also gave an IC50 [4, 9] of 121 nM and an IC50 [5, 9] of 2200 nM.

PASISSVLTI showed an IC50 [1, 9] of 5910 nM, an IC50 [2, 9] of 1360 nM and an IC50 [3, 9] of 83 nM. It also gave an IC50 [4, 9] of 4510 nM and an IC50 [5, 9] of 1550 nM.

With STAEQLSKYV the IC50 [1, 9] was 8210 nM, the IC50 [2, 9] was 1060 nM and the IC50 [3, 9] was 1870 nM. For the same sequence, the IC50 [4, 9] was 28 nM and the IC50 [5, 9] was 697 nM.

ELIDVLKTRL was tested, and the IC50 [1, 9] was 5430 nM, the IC50 [2, 9] was 262 nM and the IC50 [3, 9] was 118 nM. It also gave an IC50 [4, 9] of 1420 nM and an IC50 [5, 9] of 1990 nM.

With IAIFNNRNLA the IC50 [1, 9] was 6300 nM, the IC50 [2, 9] was 3360 nM and the IC50 [3, 9] was 1480 nM. It also gave an IC50 [4, 9] of 1490 nM and an IC50 [5, 9] of 890 nM.

With LVFNSISARA the IC50 [1, 9] was 15900 nM, the IC50 [2, 9] was 1270 nM and the IC50 [3, 9] was 254 nM. For the same sequence, the IC50 [4, 9] was 168 nM and the IC50 [5, 9] was 702 nM.

AMWLLLLSI showed an IC50 ([6]; source organism: SARS-CoV1) of 27700 nM, an IC50 ([2]; source organism: SARS-CoV1) of 357 nM and an IC50 ([3]; source organism: SARS-CoV1) of 205 nM. The IC50 ([5]; source organism: SARS-CoV1) was 268 nM.

EATFIDVHI showed an IC50 [1, 9] of 10700 nM, an IC50 [2, 9] of 1660 nM and an IC50 [3, 9] of 862 nM. The IC50 [4, 9] was 0.13 nM and the IC50 [5, 9] was 3430 nM.

In the case of ALMDCIIFES, the IC50 [1, 10] is reported as 6230 nM, the IC50 [2, 10] is reported as 2.1 nM and the IC50 [3, 10] is reported as 16 nM. It also gave an IC50 [4, 10] of 507 nM and an IC50 [5, 10] of 13 nM.

With ILGFVFTL the IC50 [6, 8] was no less than 70000 nM and the IC50 [7] was 1.2 nM.

MMMNWSPTT showed an IC50 [6, 11] of 17900 nM, an IC50 [2, 11] of 311 nM and an IC50 [3, 11] of 106 nM. For the same sequence, the IC50 [5, 11] was 1230 nM.

In the case of TIVSRSSRGV, the IC50 [1, 9] is reported as 11300 nM, the IC50 [2, 9] is reported as 4700 nM and the IC50 [3, 9] is reported as 11 nM. For the same sequence, the IC50 [4, 9] was 1260 nM and the IC50 [5, 9] was 3740 nM.

LNMFVSDQV gave an IC50 [1, 10] of 5760 nM, an IC50 [2, 10] of 18 nM and an IC50 [3, 10] of 880 nM. The IC50 [4, 10] was 7 nM and the IC50 [5, 10] was 4810 nM.

With YAGTIKESL the IC50 [1, 9] was 21100 nM, the IC50 [2, 9] was 2070 nM and the IC50 [3, 9] was 2490 nM. For the same sequence, the IC50 [4, 9] was 361 nM and the IC50 [5, 9] was 3300 nM.

Work on NITTLLNETA yielded an IC50 [1, 9] of 5680 nM, an IC50 [2, 9] of 218 nM and an IC50 [3, 9] of 106 nM. It also gave an IC50 [4, 9] of 1720 nM and an IC50 [5, 9] of 1130 nM.

For LVKESMASL, the IC50 [1, 9] was 14300 nM, the IC50 [2, 9] was 1120 nM and the IC50 [3, 9] was 9.5 nM. It also gave an IC50 [4, 9] of 2070 nM and an IC50 [5, 9] of 136 nM.

With ALQLLLEV the IC50 [6, 8] was no less than 70000 nM.

GLIYNRMGA showed an IC50 [1, 8] of 16700 nM and an IC50 [6, 8] of no less than 70000 nM.

ILKDPRIASI showed an IC50 [1, 9] of 5030 nM, an IC50 [2, 9] of 3160 nM and an IC50 [3, 9] of 1030 nM. For the same sequence, the IC50 [4, 9] was 4520 nM and the IC50 [5, 9] was 4000 nM.

NASKTINALV was tested, and the IC50 [1, 9] was 8460 nM, the IC50 [2, 9] was 765 nM and the IC50 [3, 9] was 274 nM. It also gave an IC50 [4, 9] of 21 nM and an IC50 [5, 9] of 3220 nM.

Work on SIAMLKSKNI yielded an IC50 [1, 9] of 14000 nM, an IC50 [2, 9] of 1090 nM and an IC50 [3, 9] of 55 nM. For the same sequence, the IC50 [4, 9] was 2100 nM and the IC50 [5, 9] was 259 nM.

VLPFDIKYI was tested, and the IC50 [6, 9] was 9870 nM, the IC50 [2, 9] was 135 nM and the IC50 [3, 9] was 9.7 nM. For the same sequence, the IC50 [5, 9] was 506 nM.

With AVKFAEESYT the IC50 [1, 9] was 7830 nM, the IC50 [2, 9] was 1760 nM and the IC50 [3, 9] was 1470 nM. For the same sequence, the IC50 [4, 9] was 2290 nM and the IC50 [5, 9] was 2260 nM.

LMYKGLPWNV gave an IC50 ([6]; source organism: SARS-CoV1) of 5400 nM, an IC50 ([2]; source organism: SARS-CoV1) of 1.8 nM and an IC50 ([3]; source organism: SARS-CoV1) of 5.3 nM. For the same sequence, the IC50 ([5]; source organism: SARS-CoV1) was 37 nM.

Sequence PLHIVCSKT has an IC50 [1, 9] of 7940 nM, an IC50 [2, 9] of 997 nM and an IC50 [3, 9] of 2150 nM. It also gave an IC50 [4, 9] of 1880 nM and an IC50 [5, 9] of 3890 nM.

Sequence LTSVDIETAI has an IC50 [1, 9] of 6730 nM, an IC50 [2, 9] of 509 nM and an IC50 [3, 9] of 2150 nM. For the same sequence, the IC50 [4, 9] was 221 nM and the IC50 [5, 9] was 3130 nM.

YTFAISYCRA gave an IC50 [1, 9] of 10300 nM, an IC50 [2, 9] of 325 nM and an IC50 [3, 9] of 38 nM. It also gave an IC50 [4, 9] of 4 nM and an IC50 [5, 9] of 37 nM.

LTGTFVTAFI showed an IC50 [1, 9] of 5050 nM, an IC50 [2, 9] of 672 nM and an IC50 [3, 9] of 596 nM. The IC50 [4, 9] was 109 nM and the IC50 [5, 9] was 413 nM.

ILGFVFTLTV was tested, and the IC50 [6, 8] was 5020 nM.

In the case of YVIRHVDGKI, the IC50 [1, 9] is reported as 8590 nM, the IC50 [2, 9] is reported as 621 nM and the IC50 [3, 9] is reported as 114 nM. For the same sequence, the IC50 [4, 9] was 22 nM and the IC50 [5, 9] was 522 nM.

With NITTLLNET the IC50 [1, 9] was 39200 nM, the IC50 [2, 9] was 1300 nM and the IC50 [3, 9] was 2900 nM. It also gave an IC50 [4, 9] of 1540 nM and an IC50 [5, 9] of 2310 nM.

KINEMVDELV showed an IC50 [1, 9] of 26400 nM, an IC50 [2, 9] of 587 nM and an IC50 [3, 9] of 492 nM. For the same sequence, the IC50 [4, 9] was 4960 nM and the IC50 [5, 9] was 3060 nM.

ITRLEVIGLT showed an IC50 [1, 9] of 6470 nM, an IC50 [2, 9] of 2210 nM and an IC50 [3, 9] of 219 nM. It also gave an IC50 [4, 9] of 1180 nM and an IC50 [5, 9] of 967 nM.

SAVFKDSFL was tested, and the IC50 [1, 9] was 6060 nM, the IC50 [2, 9] was 231 nM and the IC50 [3, 9] was 536 nM. The IC50 [4, 9] was 110 nM and the IC50 [5, 9] was 1140 nM.

Sequence LLGCIITSL has an IC50 [6, 11] of no less than 70000 nM, an IC50 [2, 11] of 79 nM and an IC50 [3, 11] of 121 nM. The IC50 [5, 11] was 3130 nM.

Reference: the Immune Epitope Database (IEDB)
